Assays:
[1] = target: the molecule itself; test: native gel or EMSA; native PAGE of purified CENP-E483; species at ~100 kDa and ~230 kDa
[2] = target: the molecule itself; test: single-molecule photobleaching steps and initial intensity (TIRF); 0.5 nM fluorescent motor adsorbed non-specifically on silanised coverslips, BRB80 with oxygen scavengers; bleaching steps counted by hand; K560-2mNG as intensity reference

Protein	stoichiometry N [1]	binding result [2]
human CENP-E483 followed by two tandem mNeonGreen fluorophores (domain or fragment, UniProt Q02224 1-483, looked up, CENP-E, human, N-terminal truncation with the motor domain and the first predicted coiled-coil (334-401); Codon-optimised synthetic gene in pFastBac1; predicted monomer mass 109 kDa with the tags; also called truncated CENP-E483; source: Sf9 cells (baculovirus), purified (HisTrap HP, Superose 6 Increase); not shown: 2x tandem mNeonGreen, C-terminal, kept) MAEEGAVAVCVRVRPLNSREESLGETAQVYWKTDNNVIYQVDGSKSFNFDRVFHGNETTKNVYEEIAAPIIDSAIQGYNGTIFAYGQTASGKTYTMMGSEDHLGVIPRAIHDIFQKIKKFPDREFLLRVSYMEIYNETITDLLCGTQKMKPLIIREDVNRNVYVADLTEEVVYTSEMALKWITKGEKSRHYGETKMNQRSSRSHTIFRMILESREKGEPSNCEGSVKVSHLNLVDLAGSERAAQTGAAGVRLKEGCNINRSLFILGQVIKKLSDGQVGGFINYRDSKLTRILQNSLGGNAKTRIICTITPVSFDETLTALQFASTAKYMKNTPYVNEVSTDEALLKRYRKEIMDLKKQLEEVSLETRAQAMEKDQLAQLLEEKDLLQKVQNEKIENLTRMLVTSSSLTLQQELKAKRKRRVTWCLGKINKMKNSNYADQFNIPTNITTKTHKLSINLLREIDESVCSESDVFSNTLDTLSEIE	2	
truncated human CENP-E754 containing five predicted coiled-coils of the native stalk (domain or fragment, UniProt Q02224 1-754, looked up, CENP-E, human, N-terminal truncation with the motor domain and five predicted coiled-coils; source: Sf9 cells (baculovirus), purified (HisTrap HP, Superose 6 Increase); not shown: 2x tandem mNeonGreen, C-terminal, kept) MAEEGAVAVCVRVRPLNSREESLGETAQVYWKTDNNVIYQVDGSKSFNFDRVFHGNETTKNVYEEIAAPIIDSAIQGYNGTIFAYGQTASGKTYTMMGSEDHLGVIPRAIHDIFQKIKKFPDREFLLRVSYMEIYNETITDLLCGTQKMKPLIIREDVNRNVYVADLTEEVVYTSEMALKWITKGEKSRHYGETKMNQRSSRSHTIFRMILESREKGEPSNCEGSVKVSHLNLVDLAGSERAAQTGAAGVRLKEGCNINRSLFILGQVIKKLSDGQVGGFINYRDSKLTRILQNSLGGNAKTRIICTITPVSFDETLTALQFASTAKYMKNTPYVNEVSTDEALLKRYRKEIMDLKKQLEEVSLETRAQAMEKDQLAQLLEEKDLLQKVQNEKIENLTRMLVTSSSLTLQQELKAKRKRRVTWCLGKINKMKNSNYADQFNIPTNITTKTHKLSINLLREIDESVCSESDVFSNTLDTLSEIEWNPATKLLNQENIESELNSLRADYDNLVLDYEQLRTEKEEMELKLKEKNDLDEFEALERKTKKDQEMQLIHEISNLKNLVKHAEVYNQDLENELSSKVELLREKEDQIKKLQEYIDSQKLENIKMDLSYSLESIEDPKQMKQTLFDAETVALDAKRESAFLRSENLELKEKMKELATTYKQMENDIQLYQSQLEAKKKMQVDLEKELQSAFNEITKLTSLIDGKVPKDLLCNLELEGKITDLQKELNKEVEENEALREEVILLSELKSLPS		binds
